This is an account of results in PMC3137072.

Assay [1] has as its target filamentous actin (F-actin), non-muscle actin (UniProt P60709).
Assay [2] concerns the target microtubules (polymerized tubulin) (UniProt Q6B856).

Chain of microtubules (polymerized tubulin) (Q6B856 whole entry, looked up): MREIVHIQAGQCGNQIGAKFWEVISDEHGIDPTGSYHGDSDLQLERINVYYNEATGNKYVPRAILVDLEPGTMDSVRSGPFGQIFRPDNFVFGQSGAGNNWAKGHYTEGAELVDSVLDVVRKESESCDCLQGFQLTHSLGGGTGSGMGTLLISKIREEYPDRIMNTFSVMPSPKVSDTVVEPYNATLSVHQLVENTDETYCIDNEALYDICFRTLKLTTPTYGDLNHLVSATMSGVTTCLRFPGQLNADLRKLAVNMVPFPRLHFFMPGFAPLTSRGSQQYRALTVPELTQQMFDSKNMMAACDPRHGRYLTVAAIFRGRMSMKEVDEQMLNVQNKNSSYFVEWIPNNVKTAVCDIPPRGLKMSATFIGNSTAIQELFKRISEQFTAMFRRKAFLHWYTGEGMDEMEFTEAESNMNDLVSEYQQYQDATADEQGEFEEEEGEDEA
Chain of G2L3-ΔGAR (GAS2-like 3 lacking the GAR domain), GFP-tagged (Q86XJ1 whole entry, stated change not applied, the tested form may be a part): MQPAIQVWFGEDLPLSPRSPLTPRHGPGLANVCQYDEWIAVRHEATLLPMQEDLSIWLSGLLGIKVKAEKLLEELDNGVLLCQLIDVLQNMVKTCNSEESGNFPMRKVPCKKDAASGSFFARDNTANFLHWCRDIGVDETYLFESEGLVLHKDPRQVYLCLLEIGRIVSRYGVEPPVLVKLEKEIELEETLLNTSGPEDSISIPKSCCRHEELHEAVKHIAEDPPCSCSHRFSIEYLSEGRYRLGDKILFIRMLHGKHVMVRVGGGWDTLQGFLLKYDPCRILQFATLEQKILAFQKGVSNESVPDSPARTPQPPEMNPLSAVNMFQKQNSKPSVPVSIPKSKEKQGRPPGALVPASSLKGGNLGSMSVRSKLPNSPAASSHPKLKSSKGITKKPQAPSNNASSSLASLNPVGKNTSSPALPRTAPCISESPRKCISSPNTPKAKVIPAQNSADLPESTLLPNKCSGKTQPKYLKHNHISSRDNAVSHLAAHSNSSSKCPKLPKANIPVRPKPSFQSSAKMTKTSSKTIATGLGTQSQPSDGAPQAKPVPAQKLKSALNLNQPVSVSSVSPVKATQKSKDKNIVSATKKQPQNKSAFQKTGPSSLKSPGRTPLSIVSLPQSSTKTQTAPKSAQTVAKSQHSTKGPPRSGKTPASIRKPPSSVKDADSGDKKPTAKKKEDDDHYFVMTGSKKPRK
Chain of G2L3-CH (calponin homology domain of GAS2-like 3) (Q86XJ1 48-168): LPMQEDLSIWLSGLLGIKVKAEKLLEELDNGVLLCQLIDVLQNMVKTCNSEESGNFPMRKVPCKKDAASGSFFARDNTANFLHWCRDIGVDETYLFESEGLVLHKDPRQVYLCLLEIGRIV

In assay [1], “G2L3-CH (calponin homology domain of GAS2-like 3) (from UniProt Q86XJ1 48-168) (domain or fragment)” registered an FRAP, t½ of recovery of GFP-tagged G2L3-CH on actin filaments in NIH3T3 cells of 28.5 s.
“G2L3-ΔGAR (GAS2-like 3 lacking the GAR domain), GFP-tagged (from UniProt Q86XJ1 1-694) (natural protein)”: the FRAP, t½ of recovery of GFP-tagged G2L3-ΔGAR on MTs in NIH3T3 cells in assay [2] is 6 s.
For “G2L3-ΔCH (GAS2-like 3 lacking the CH domain), GFP-tagged (domain or fragment)”, in assay [2], the FRAP, t½ of recovery of GFP-tagged G2L3-ΔCH on MTs in NIH3T3 cells is 15.3 s.
“G2L3-C-term (C terminus of GAS2-like 3) (domain or fragment)”: in assay [2], the FRAP, t½ of recovery of GFP-tagged G2L3-C-term on MTs in NIH3T3 cells was 3.9 s.
